± gives the uncertainty stated by the source.
Assay: self-splicing fitness, log relative to wild type (ln ratio); higher = more splicing; Tetrahymena group I intron in knt gene, E. coli kanamycin selection, DiMSum; sequences stand for … in CUCUCU…GGAGGGAAAAGUUAUCAGGCAUGCACCUGGUAGCUAGUCUUUAAACCAAUAGAUUGCAUCGGUUUAAAAGGCAAGACCGUCAAAUUGCGGGAAAGGGGUCAACAGCCGUUCAGUACCAAGUCUCAGGGGAAACUUUGAGAUGGCCUUGCAAAGGGUAUGGUAAUAAGCUGACGGACAUGGUCCUAACCACGCAGCCAAGUCCUAAGUCAACAGAUCUUCUGUUGAUAUGGAUGCAGUUCACAGACUAAAUGUCGGUCGGGGAAGAUGUAUUCUUCUCAUAAGAUAUAGUCGGACCUCUCCUUAAUGGGAGCUAGCGGAUGAAGUGAUGCAACACUGGAGCCGCUGGGAACUAAUUUGUAUGCGAAAGUAUAUUGAUUAGUUUUGGAGUACUCGUGGUCG
In short: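 DiMSum derived fitness as the error-weighted combination of fold changes across replicates, kanamycin versus no kanamycin, normalised to wild type. E. coli BL21(DE3) held the library, which randomised all eight P1ex-region intron nucleotides within the knt kanamycin-resistance gene on pET-22b(+). Six replicate transformations grew overnight at 37°C or 30°C on LB agar with or without 25 μg/mL kanamycin, also containing 100 μg/mL carbenicillin, 50 μM IPTG and 0.2% rhamnose, and pooled colonies were amplicon-sequenced on an Illumina HiSeq 2500.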

Sequence | self-splicing fitness (ln) (37 °C) | self-splicing fitness (ln) (30 °C)
GAUGAGCAAUAUUACGCCGG | -2.46 ± 0.45 | 
CUUGAGCAAUAUUACGUCGC | -1.81 ± 0.19 | -2.54 ± 0.21
ACGCAGCAAUAUUACGGCAG | -1.08 ± 0.15 | -1.22 ± 0.093
ACAUAGCAAUAUUACGAUAG | -1.36 ± 0.17 | -3.38 ± 0.19
AUACAGCAAUAUUACGAAUA | -0.987 ± 0.11 | -2.51 ± 0.12
UACUAGCAAUAUUACGGGCU | -2.87 ± 0.34 | -3.52 ± 0.28
CCGGAGCAAUAUUACGUGCC | -2.94 ± 0.35 | -2.1 ± 0.38
AUAAAGCAAUAUUACGUGAG | -1.07 ± 0.12 | -1.27 ± 0.076
GUUUAGCAAUAUUACGAUUU | 0.111 ± 0.096 | -0.709 ± 0.068
UAAUAGCAAUAUUACGGUAU | -2.68 ± 0.23 | -3.69 ± 0.21
UGAAAGCAAUAUUACGACCC |  | -1.44 ± 0.31
CGCCAGCAAUAUUACGGGUC | -2.6 ± 0.17 | -2.81 ± 0.14
CGCUAGCAAUAUUACGAGAC | -2.45 ± 0.13 | -3.36 ± 0.12
CUUCAGCAAUAUUACGCCUG | 0.268 ± 0.1 | -0.748 ± 0.074
UCACAGCAAUAUUACGAGGA | -1.65 ± 0.13 | -1.73 ± 0.13
UGGCAGCAAUAUUACGAAAA | -0.934 ± 0.1 | -0.512 ± 0.082
AUGUAGCAAUAUUACGGAGG | -2.57 ± 0.23 | -3.57 ± 0.23
AGAGAGCAAUAUUACGGCUG | -2.26 ± 0.49 | -0.227 ± 0.24
CAACAGCAAUAUUACGCCUC | -1.81 ± 0.18 | -3.85 ± 0.29
UUUGAGCAAUAUUACGACCG | -1.19 ± 0.4 | 
CGUGAGCAAUAUUACGCUGC |  | -2.64 ± 0.32
ACUGAGCAAUAUUACGCUUU | -1.37 ± 0.18 | -2.53 ± 0.21
GGCUAGCAAUAUUACGGUAA | -0.0661 ± 0.14 | -0.655 ± 0.15
UAUAAGCAAUAUUACGUUAG | -0.812 ± 0.14 | -2.08 ± 0.14
AGUUAGCAAUAUUACGCCCU | -0.312 ± 0.15 | -0.19 ± 0.12

Sequence | self-splicing fitness (ln) (37 °C) | self-splicing fitness (ln) (30 °C)
CCUCAGCAAUAUUACGGUGU | -1.76 ± 0.16 | -3.9 ± 0.27
CUAGAGCAAUAUUACGUGGU | -3.52 ± 0.33 | -4.21 ± 0.24
UUCCAGCAAUAUUACGAUUA | -0.0509 ± 0.1 | -0.297 ± 0.12
CGCAAGCAAUAUUACGUGCG | -2.23 ± 0.2 | -2.81 ± 0.26
UUUAAGCAAUAUUACGAUCG | 0.237 ± 0.17 | -0.416 ± 0.12
UCAAAGCAAUAUUACGCGAU | -1.64 ± 0.23 | 
AUAUAGCAAUAUUACGGUUU | -0.854 ± 0.11 | -1.31 ± 0.091
UAUGAGCAAUAUUACGGCGC | -1.46 ± 0.29 | -3.47 ± 0.48
GGCAAGCAAUAUUACGCAAG | -2.04 ± 0.23 | -4.16 ± 0.36
CGCAAGCAAUAUUACGUGGC | -1.93 ± 0.17 | -3.9 ± 0.2
GCUCAGCAAUAUUACGGGGA | 0.325 ± 0.075 | -0.491 ± 0.054
CUUGAGCAAUAUUACGUCUG | -0.657 ± 0.11 | -0.671 ± 0.086
UCCGAGCAAUAUUACGCGUG | -1.3 ± 0.1 | -2.6 ± 0.12
UUUUAGCAAUAUUACGGGUC | -2.96 ± 0.38 | -3.73 ± 0.4
GGUAAGCAAUAUUACGCCGU | -0.738 ± 0.13 | -1.93 ± 0.11
GCCGAGCAAUAUUACGAUAG | -2.13 ± 0.21 | -2.94 ± 0.21
CUACAGCAAUAUUACGAAUU | -2.94 ± 0.24 | -3.04 ± 0.14
UGUCAGCAAUAUUACGCCGU | -1.12 ± 0.15 | -1.42 ± 0.13
GCAGAGCAAUAUUACGCCUU | -2.46 ± 0.33 | 
AAGUAGCAAUAUUACGCAGC | -2.3 ± 0.24 | -3.59 ± 0.34
CCAAAGCAAUAUUACGCAGU | -1.64 ± 0.16 | -3.71 ± 0.21
CCCUAGCAAUAUUACGCACG | -1.74 ± 0.18 | -3.98 ± 0.37
CGCGAGCAAUAUUACGGUGC | -2.47 ± 0.5 | 
CCAAAGCAAUAUUACGUAUG | -0.574 ± 0.093 | -0.512 ± 0.059
AUGUAGCAAUAUUACGCGGU | -1.58 ± 0.2 | -2.3 ± 0.15
